Like-named read-outs stand apart in the source and are kept apart here.
Experiments:
[1] = Peroxidase activity: ABTS oxidation with H2O2 (formation of ABTS+• radical cation at 660 nm); assay type: biochemical; settings: for Specific activity: ABTS oxidation with H2O2, pH 6.5
Procedure: The peroxidase activity of the compound on the secondary substrate ABTS was evaluated by following the formation of the ABTS^+• radical cation, in the presence of H2O2.
The reaction was followed by using spectrophotometry, measuring the appearance of the products in the reaction medium. The formation of ABTS^+• cation radical was followed at 660 nm (λmax (ε)=660 nm (1.40×10^4 M^−1cm^−1)). The reaction was performed in 50% TFE (v/v) 100 mM phosphate buffer, pH 6.5, using a 2.0×10^−7 M catalyst concentration.
Kinetic parameters of the compound were determined by varying the H2O2 concentration using fixed concentrations of the reducing substrates, and vice versa.
In more details, in the experiments performed at various H2O2 concentrations (in the range 0.01÷ 200 mM) the ABTS concentration was kept constant at 0.1 mM. In the experiments performed at various ABTS concentrations (in the range 0.005÷ 0.1 mM) the H2O2 concentration was 50 mM.
The experiments were performed in 50% TFE (v/v) 100 mM phosphate buffer, pH 6.5. As described in the example 10, the catalytic process was evaluated by following the formation of the ABTS^+• radical cation at 660 nm (c=[…] cm^−1). Kinetic parameters of the compound were determined by varying the H2O2 concentration using fixed concentrations of the reducing substrates, and vice versa.
In more details, in the first experiment the ABTS and the conjugate concentrations were kept constant at 0.1 mM and 2 10^−7 M, respectively, and the H2O2 concentration was varied in the range 10-100 mM. In the second experiment, the H2O2 and the conjugate concentrations were fixed at 50 mM and 2 10^−7 M, respectively, and the ABTS concentration was varied in the range 0.005÷ 0.1 mM.

[2] = Peroxidase activity: guaiacol oxidation with H2O2 (tetraguaiacol formation at 470 nm); assay type: biochemical
Procedure: The peroxidase activity on the guaiacol substrate was evaluated by following the formation of guaiacol oxidation product, tetraguaiacol. Changes in the absorbance at 470 nm were measured, considering a ε470=2.66×10^4 M^−1cm^−1.
In details, in the experiments performed at various H2O2 concentrations (in the range 1÷ 40 mM), the guaiacol concentration was kept constant at 0.1 mM. In the experiments performed at various guaiacol concentrations, in the range 0.0025÷ 0.07 mM, the H2O2 concentration was 10 mM.

[3] = Phenol nitration (NaNO2/H2O2), HPLC analysis; assay type: biochemical; settings: 40 min, room temperature, substrate and oxidant 1.0 mM, 40 mM NO2−, 0.2 μM catalyst, pH 6.5, 50% TFE
Procedure: For the compound Fe(III)-3,7,12,17-tetramethyl-porphyrin-2(18)-N9epsilon-(Ace-Asp1-Glu2-Gln3-Gln4-Leu5-His6-Ser7-Gln8-Lys9-Arg10-Lys11-Ile12-Thr13-Leu14-NH2)-18(2)-N9epsilon-(Ace-Asp1-Glu2-Gln3-Gln4-Leu5-Ser6-Ser7-Gln8-Lys9-Arg10-NH2)-di-propionammide, whose synthesis is described in example 1, the ability to catalyze phenol nitration was evaluated. […] The concentrations of the starting material and products were determined from calibration curves constructed using commercial samples and 4-cyanophenol as internal standard. Standard incubation for phenol nitration were performed at 1 mM phenol in the presence of 0.2 μM catalyst, 20 mM NaNO2 and 3 mM H2O2 in phosphate buffer, pH 6.5, 50% TFE (v/v).
The reactions were performed at room temperature with an incubation time of 40 min. […] The yield of 4- and 2-nitrophenol at 40 min reaction time increased by increasing H2O2 NO2″ and phenol concentrations. The maximum yield of nitrophenols (4- and 2-) was obtained at a substrate and oxidant concentrations of 1.0 mM, and at 40 mM NO2^− concentration, respectively.

[4] = ABTS oxidation with H2O2, pH 7.0; cited from earlier work
[5] = in the presence of lactoperoxidase; cited from earlier work
[6] = ABTS oxidation with H2O2, pH 6.5, 50% TFE (v/v) 100 mM phosphate buffer
[7] = ABTS oxidation with H2O2, pH 6.5, 50% TFE (v/v) 100 mM phosphate buffer, read-out: Km^H2O2
[8] = AH2 = ABTS, pH 6.5, 50% TFE (v/v) 100 mM phosphate buffer, read-out: Km^AH2

| Substance | Specific activity [1] [mol/g/min] | kcat [1, 6] [s⁻¹] | Km [1, 7] [µM] | Km [1, 8] [µM] | other results |
| --- | --- | --- | --- | --- | --- |
| 3,7,12,17-tetramethyl-porphyrin-2 (18)-N9epsilon-(Ace-Asp1-Glu2-Gln3-Gln4-Leu5-His6-Ser7-Gln8-Lys9-Arg10-Lys11-Ile12-Thr13-Leu14-NH2)-18(2)-N9epsilon-(Ace-Asp1-Glu2-Gln3-Gln4-Leu5-Gly6-Ser7-Gln8-Lys9-Arg10-NH2)-di-propionamide [Example 7] | 7.976 | 468 | 46000 | 125 | – |
| 3,7,12,17-tetramethyl-porphyrin-2(18)-N9epsilon-(Ace-Asp1-Glu2-Gln3-Gln4-Leu5-His6-Ser7-Gln8-Lys9-Arg10-Lys11-Ile12-Thr13-Leu14-NH2)-18(2)-N9epsilon-(Ace-Asp1-Glu2-Gln3-Gln4-Leu5-Ser6-Ser7-Gln8-Lys9-Leu10-NH2)-di-propionamide [Example 9] | 2.890 | 169 | 20000 | 29 | – |
| 3,7,12,17-tetramethyl-porphyrin-2(18)-N9epsilon-(Ace-Asp1-Glu2-Gln3-Gln4-Leu5-His6-Ser7-Gln8-Lys9-Arg10-Lys11-Ile12-Thr13-Leu14-NH2)-18(2)-N9epsilon-(Ace-Asp1-Leu2-Gln3-Gln4-Leu5-Ser6-Ser7-Gln8-Lys9-Arg10-NH2)-di-propionamide [Example 8] | 6.463 | 381 | 96000 | 115 | – |
| 3,7,12,17-tetramethyl-porphyrin-2(18)-N9epsilon-(Ace-Asp1-Glu2-Gln3-Gln4-Leu5-His6-Ser7-Gln8-Lys9-Leu10-Lys11-Ile12-Thr13-Leu14-NH2)-18(2)-N9epsilon-(Ace-Asp1-Glu2-Gln3-Gln4-Leu5-Ser6-Ser7-Gln8-Lys9-Arg10-NH2)-di-propionamide [Example 5] | 11.72 | 685 | 54000 | 38 | Specific activity ([1]; listed as Esempio 5): 11.716 mol/g/min |
| 3,7,12,17-tetramethylporphyrin-18(2)-propionicacid-2(18)-N9epsilon-(Ac-Asp1-Glu2-Gln3-Gln4-Leu5-His6-Ser7-Gln8-Lys9-Arg10-Lys11-Ile12-Thr13-Leu14-NH2)propionamide [Example 4] | 17.86 | 688 | 80000 | 130 | Specific activity ([1]; listed as Esempio 4): 17.860 mol/g/min |
| Fe(III)-3,7,12,17-tetramethyl-porphyrin-2(18)-N9epsilon-(Ace-Asp1-Glu2-Gln3-Gln4-Leu5-His6-Ser7-Gln8-Lys9-Arg10-Lys11-Ile12-Thr13-Leu14-NH2)-18(2)-N9epsilon-(Ace-Asp1-Glu2-Gln3-Gln4-Leu5-Ser6-Ser7-Gln8-Lys9-Arg10-NH2)-di-propionammide [Example 1] | 6.269 | 370.9 ± 14 | 44000 | 84 | kcat ([1]; ABTS oxidation with H2O2, pH 6.5, 50% TFE (v/v) 100 mM phosphate buffer, listed as Esempio 1): 371 s⁻¹; Km ([1]; AH2 = ABTS, pH 6.5, 50% TFE, 2.0×10^−7 M catalyst, read-out: Km^AH2): 84 ± 2 µM; specific activity for ABTS oxidation ([1]; pH=6.5): 104 mmol/g/s; Km ([2]; AH2 = guaiacol): 9.2 ± 0.4 µM; kcat ([2]; guaiacol oxidation with H2O2): 8.0 ± 0.1 s⁻¹; specific activity for guaiacol oxidation relative to horseradish peroxidase ([2]; versus horseradish peroxidase): two times higher; total yield of nitrophenols (4- and 2-) [3]: about 14.8% |
| H-Cys-Ala-Gln-Cys-His-Thr-Val-Glu-OH (CAQCHTVE; heme covalently attached; printed: Cys-Ala-Gln-Cys-His-Thr-Val-Glu-) [MP8, microperoxidase, mono-adduct porphyrin obtained from proteolytic digestion of cytochromes c] | – | – | – | – | Specific activity [4]: 0.000104 mol/g/min; kcat [4]: 0.0026 s⁻¹ |
| H-VQKCAQCHTVE-OH (cysteine pairing not given here) [MP11] | – | – | – | – | Specific activity [4]: 0.000419 mol/g/min; kcat [4]: 0.013 s⁻¹ |
| lactoperoxidase | – | – | – | – | total yield of nitrophenols relative to the compound of example 1 [5]: fourfold higher |

Reference: US20130244232A1, “HIGH-EFFICIENCY CATALYSTS, PREPARATION AND USE THEREOF” (priority 2012, published 2013)
